Experimental data: patent US20240216513A1, “FATTY ACID-BIFUNCTIONAL DEGRADER CONJUGATES AND THEIR METHODS OF USE” (Novartis AG, priority 2021, published 2024)
Marks after values point to notes of the source that are not given here.

Columns and labels:
[1] = BTK FAC plasma stability assay, PBS buffer arm; type: physicochemical; details: for Plasma stability (h) PBS: incubation to 24 h
Procedure, shortened: (§1)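 Compound from a 500 µM acetonitrile:water working solution was spiked into K3-EDTA plasma or Dulbecco's PBS and incubated with shaking at 38 °C. Samples taken at 0, 2, 6 and 24 h were precipitated with cold acetonitrile containing glyburide internal standard. Semi-quantitative LC-MS/MS used analyte:internal standard peak area ratios.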

[2] = BTK FAC plasma stability assay, mouse plasma; type: in vitro ADME
Procedure, shortened: as §1

[3] = BTK FAC plasma stability assay, rat plasma; type: in vitro ADME
Procedure, shortened: as §1

[4] = BTK FAC plasma stability assay, dog plasma; type: in vitro ADME
[5] = BTK FAC plasma stability assay, cyno plasma; type: in vitro ADME, cynomolgus monkey
BTK C481S = biological target: T1, BTK C481S (Homo sapiens, UniProt Q06187, C481S); test: PD screen in TMD8 BTK C481S mutant tumor-bearing mice, BTK levels and compound concentrations in blood and tumor; type: in vivo, mouse
T1 construct: endogenous in cells; host or cells: TMD8 BTK C481S mutant tumour xenografts in mice
Protocol: All animal studies were conducted in accordance with ethics and procedures covered by permit nos. BS-1975 issued by the Kantonales Veterinäramt Basel-Stadt and in strict adherence to guidelines of the Eidgenössisches Tierschutzgesetz and the Eidgenössische Tierschutzverordnung, Switzerland. All animals had access to food and water ad libitum and were identified with transponders. They were housed in a specific pathogen-free facility with a 12-h light/12-h dark cycle. For PD screen experiments in TMD8 BTK C481S mutant tumor-bearing mice, FAC was injected once. Animals were randomized into groups of 2 and tissue samples collected at day 0, 4, 7 and in some studies day 10 as well. Blood samples were collected and tumors were excised, weighed, frozen in liquid nitrogen and cryogenic dry pulverized with the CryoPrep™ system (model CP-02, Covaris). Concentrations of compounds in blood and tumors were determined by UPLC/MS-MS and BTK levels were analyzed by Meso Scale Discovery.

T1 sequence (Q06187 whole entry C481S): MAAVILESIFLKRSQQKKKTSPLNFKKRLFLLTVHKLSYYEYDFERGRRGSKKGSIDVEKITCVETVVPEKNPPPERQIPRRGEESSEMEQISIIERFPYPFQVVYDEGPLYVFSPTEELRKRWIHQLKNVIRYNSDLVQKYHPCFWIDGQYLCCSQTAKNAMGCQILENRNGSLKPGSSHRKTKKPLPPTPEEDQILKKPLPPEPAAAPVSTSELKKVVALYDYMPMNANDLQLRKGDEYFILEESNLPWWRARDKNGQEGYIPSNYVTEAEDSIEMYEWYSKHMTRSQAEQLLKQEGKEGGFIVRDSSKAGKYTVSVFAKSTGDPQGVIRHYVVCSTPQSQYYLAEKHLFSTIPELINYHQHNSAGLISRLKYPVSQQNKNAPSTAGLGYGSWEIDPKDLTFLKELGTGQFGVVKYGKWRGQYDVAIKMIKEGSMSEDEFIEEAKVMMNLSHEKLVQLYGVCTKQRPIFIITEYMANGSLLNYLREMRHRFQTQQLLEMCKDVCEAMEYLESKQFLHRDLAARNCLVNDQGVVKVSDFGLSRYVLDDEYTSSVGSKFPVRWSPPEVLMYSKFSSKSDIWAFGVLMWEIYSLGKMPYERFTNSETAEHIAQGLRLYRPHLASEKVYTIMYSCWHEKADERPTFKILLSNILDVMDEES

| Compound | % Release of degrader after 24 h PBS [1] | Plasma stability (h) PBS [1] | % Release of degrader after 24 h mouse [2] | half-life at 5 µM ([2]; incubation to 24 h) | % Release of degrader after 24 h rat [3] | half-life at 5 µM ([3]; incubation to 24 h) | % Release of degrader after 24 h dog [4] | half-life at 5 µM ([4]; read-out: Plasma stability (h) dog (converted)) | % Release of degrader after 24 h cyno [5] | half-life at 5 µM ([5]; monkey, read-out: Plasma stability (h) cyno) | Duration of BTK degradation in mouse ≥90% (BTK C481S; i.v., 25 umol/kg) | Duration of BTK degradation in mouse ≥90% (BTK C481S; s.c., 25 umol/kg) | Plasma stability (h) mouse ([2]; incubation to 24 h) | Plasma stability (h) rat ([3]; incubation to 24 h) | Plasma stability (h) dog [4] | Plasma stability (h) cyno [5] | Duration of BTK degradation in mouse ≥90% (BTK C481S; i.v., 50 umol/kg) | Duration of BTK degradation in mouse ≥90% (days) (BTK C481S; i.v., 50 umol/kg) |
| --- | --- | --- | --- | --- | --- | --- | --- | --- | --- | --- | --- | --- | --- | --- | --- | --- | --- | --- |
| CCCCCCCCCCCN(C(=O)CCCCCCCCCCO)C(CCC(=O)NCCOCCOCCOCCOCCOCCOCCOCCOCCOCCOCCOCCOCCC(=O)NCCC(=O)NCCC(=O)OC(C)(C)c1ccc(C(=O)Nc2cc(F)cc(-c3ncnc4[nH]c(-c5ccc(CCN6CCC7(CC6)CCN(C(=O)c6ccc(OC)c(N8CCC(=O)NC8=O)c6)CC7)cc5)cc34)c2C)c(F)c1)C(=O)O (centres unmarked) [Example A5, 2-(4-((3-(6-(4-(2-(9-(3-(2,4-Dioxotetrahydropyrimidin-1(2H)-yl)-4-methoxybenzoyl)-3,9-diazaspiro[5.5]undecan-3-yl)ethyl)phenyl)-7H-pyrrolo[2,3-d]pyrimidin-4-yl)-5-fluoro-2-methylphenyl)carbamoyl)-3-fluorophenyl)-55-(11-hydroxy-N-undecylundecanamido)-2-methyl-4,8,12,52-tetraoxo-3,15,18,21,24,27,30,33,36,39,42,45,48-tridecaoxa-7,11,51-triazahexapentacontan-56-oic acid] | 0.1% | >48 h | 2% | > 48 h | 2.5% | > 48 h | 1% | > 48 h | 0.5% | > 48 h | 10 days | 10 days | – | – | – | – | – | – |
| CCCCCCCCCCCN(C(=O)CCCCCCCCCC(=O)O)C(CCC(=O)NCCOCCOCCOCCOCCOCCOCCOCCOCCOCCOCCOCCOCCC(=O)N(CC)CC(=O)OC(C)(C)c1ccc(C(=O)Nc2cc(F)cc(-c3ncnc4[nH]c(-c5ccc(CCN6CCC7(CC6)CCN(C(=O)c6ccc(OC)c(N8CCC(=O)NC8=O)c6)CC7)cc5)cc34)c2C)c(F)c1)C(=O)O (centres unmarked) [Example A13, 50-Carboxy-2-(4-((3-(6-(4-(2-(9-(3-(2,4-dioxotetrahydropyrimidin-1(2H)-yl)-4-methoxybenzoyl)-3,9-diazaspiro[5.5]undecan-3-yl)ethyl)phenyl)-7H-pyrrolo[2,3-d]pyrimidin-4-yl)-5-fluoro-2-methylphenyl)carbamoyl)-3-fluorophenyl)-6-ethyl-2-methyl-4,7,47,52-tetraoxo-51-undecyl-3,10,13,16,19,22,25,28,31,34,37,40,43-tridecaoxa-6,46,51-triazadohexacontan-62-oic acid] | 1.4% | >48 h | 3.7% | – | 2% | – | 2.7% | – | 2.5% | – | – | – | >48 h | >48 h | >48 h | >48 h | 7 days | – |
| CCCCCCCCCCCN(C(=O)CCCCCCCCCC(=O)O)C(CCC(=O)NCCOCCOCCOCCOCCOCCOCCOCCOCCOCCOCCOCCOCCC(=O)N1CCC[C@H]1CC(=O)OC(C)(C)c1ccc(C(=O)Nc2cc(F)cc(-c3ncnc4[nH]c(-c5ccc(CCN6CCC7(CC6)CCN(C(=O)c6ccc(OC)c(N8CCC(=O)NC8=O)c6)CC7)cc5)cc34)c2C)c(F)c1)C(=O)O (stereo partly drawn) [Example A19, 44-Carboxy-1-((S)-2-(2-((2-(4-((3-(6-(4-(2-(9-(3-(2,4-dioxotetrahydropyrimidin-1(2H)-yl)-4-methoxybenzoyl)-3,9-diazaspiro[5.5]undecan-3-yl)ethyl)phenyl)-7H-pyrrolo[2,3-d]pyrimidin-4-yl)-5-fluoro-2-methylphenyl)carbamoyl)-3-fluorophenyl)propan-2-yl)oxy)-2-oxoethyl)pyrrolidin-1-yl)-1,41,46-trioxo-45-undecyl-4,7,10,13,16,19,22,25,28,31,34,37-dodecaoxa-40,45-diazahexapentacontan-56-oic acid] | 0.3% | >48 h | 0.5% | – | 0.5% | – | 0.3% | – | 0.2% | – | – | – | >48 h | >48 h | >48 h | >48 h | – | 7* days |
| CCCCCCCCCCCN(C(=O)CCCCCCCCCC(=O)O)[C@@H](CCC(=O)NCCOCCOCCOCCOCCOCCOCCOCCOCCOCCOCCOCCOCCC(=O)N(CCC(=O)OC(C)(C)c1ccc(C(=O)Nc2cc(F)cc(-c3ncnc4[nH]c(-c5ccc(CCN6CCC7(CC6)CCN(C(=O)c6ccc(OC)c(N8CCC(=O)NC8=O)c6)CC7)cc5)cc34)c2C)c(F)c1)CC(=O)O)C(=O)O [Example A24, (S)-2-(3-((2-(4-((3-(6-(4-(2-(9-(3-(2,4-Dioxotetrahydropyrimidin-1(2H)-yl)-4-methoxybenzoyl)-3,9-diazaspiro[5.5]undecan-3-yl)ethyl)phenyl)-7H-pyrrolo[2,3-d]pyrimidin-4-yl)-5-fluoro-2-methylphenyl)carbamoyl)-3-fluorophenyl)propan-2-yl)oxy)-3-oxopropyl)-3,43,48-trioxo-47-undecyl-6,9,12,15,18,21,24,27,30,33,36,39-dodecaoxa-2,42,47-triazaheptapentacontane-1,46,57-tricarboxylic acid] | 2.8% | >48 h | 7.4% | – | 7.2% | – | 5.9% | – | – | – | 10 days | 10 days | >48 h | >48 h | >48 h | – | – | – |
| CCCCCCCCCCCN(C(=O)CCCCCCCCCC(=O)O)C(CCC(=O)NCCOCCOCCOCCOCCOCCOCCOCCOCCOCCOCCOCCOCCC(=O)NCc1cc(C(=O)OC(C)(C)c2ccc(C(=O)Nc3cc(F)cc(-c4ncnc5[nH]c(-c6ccc(CCN7CCC8(CC7)CCN(C(=O)c7ccc(OC)c(N9CCC(=O)NC9=O)c7)CC8)cc6)cc45)c3C)c(F)c2)ccn1)C(=O)O (centres unmarked) [Example A26, 46-Carboxy-1-(4-(((2-(4-((3-(6-(4-(2-(9-(3-(2,4-dioxotetrahydropyrimidin-1(2H)-yl)-4-methoxybenzoyl)-3,9-diazaspiro[5.5]undecan-3-yl)ethyl)phenyl)-7H-pyrrolo[2,3-d]pyrimidin-4-yl)-5-fluoro-2-methylphenyl)carbamoyl)-3-fluorophenyl)propan-2-yl)oxy)carbonyl)pyridin-2-yl)-3,43,48-trioxo-47-undecyl-6,9,12,15,18,21,24,27,30,33,36,39-dodecaoxa-2,42,47-triazaoctapentacontan-58-oic acid] | 7% | >48 h | 20.4% | – | 7.6% | – | 10.9% | – | – | – | 7 days | – | 30.5 h | >48 h | 39.2 h | – | – | – |
| CCCCCCCCCCCN(C(=O)CCCCCCCCCC(=O)O)C(CCC(=O)NCCOCCOCCOCCOCCOCCOCCOCCOCCOCCOCCOCCOCCC(=O)NCC(=O)NCN(C(=O)c1ccc(C(C)(C)O)cc1F)c1cc(F)cc(-c2ncnc3[nH]c(-c4ccc(CCN5CCC6(CC5)CCN(C(=O)c5ccc(OC)c(N7CCC(=O)NC7=O)c5)CC6)cc4)cc23)c1C)C(=O)O (centres unmarked) [Example A36, 51-Carboxy-2-(3-(6-(4-(2-(9-(3-(2,4-dioxotetrahydropyrimidin-1(2H)-yl)-4-methoxybenzoyl)-3,9-diazaspiro[5.5]undecan-3-yl)ethyl)phenyl)-7H-pyrrolo[2,3-d]pyrimidin-4-yl)-5-fluoro-2-methylphenyl)-1-(2-fluoro-4-(2-hydroxypropan-2-yl)phenyl)-1,5,8,48,53-pentaoxo-52-undecyl-11,14,17,20,23,26,29,32,35,38,41,44-dodecaoxa-2,4,7,47,52-pentaazatrihexacontan-63-oic acid] | 0% | >48 h | 0.7% | – | 0% | – | 0% | – | – | – | 10 days | – | 38.6 h | >48 h | >48 h | – | – | – |
